From patent US7901936B2, “Method for stimulating self-renewal of neural stem cells and enhancing neurogenesis” (Albany Medical College, priority 2004, dated 2011)

B1: CNTF: soluble growth factor (protein, UniProt P26441 1-200, looked up)
Ciliary neurotrophic factor: MAFTEHSPLTPHRRDLCSRSIWLARKIRSDLTALTESYVKHQGLNKNINLDSADGMPVASTDQWSELTEAERLQENLQAYRTFHVLLARLLEDQQVHFTPTEGDFHQAIHTLLLQVAAFAYQIEELMILLEYKIPRNEADGMPINVGDGGLFEKKLWGLKVLQELSQWTVRSIHDLRFISSHQTGIPARGSHYIANNKKM
B2: G-CSF: soluble growth factor (protein, UniProt P09919 31-207, looked up)
Granulocyte …: TPLGPASSLPQSFLLKCLEQVRKIQGDGAALQEKLVSECATYKLCHPEELVLLGHSLGIPWAPLSSCPSQALQLAGCLSQLHSGLFLYQGLLQALEGISPELGPTLDTLQLDVADFATTIWQQMEELGMAPALQPTQGAMPAFASAFQRRAGGVLVASHLQSFLEVSYRVLRHLAQP
B3: M-CSF: soluble growth factor (protein, UniProt P09603 33-554, looked up)
Macrophage colony-stimulating …: EEVSEYCSHMIGSGHLQSLQRLIDSQMETSCQITFEFVDQEQLKDPVCYLKKAFLLVQDIMEDTMRFRDNTPNAIAIVQLQELSLRLKSCFTKDYEEHDKACVRTFYETPLQLLEKVKNVFNETKNLLDKDWNIFSKNCNNSFAECSSQDVVTKPDCNCLYPKAIPSSDPASVSPHQPLAPSMAPVAGLTWEDSEGTEGSSLLPGEQPLHTVDPGSAKQRPPRSTCQSFEPPETPVVKDSTIGGSPQPRPSVGAFNPGMEDILDSAMGTNWVPEEASGEASEIPVPQGTELSPSRPGGGSMQTEPARPSNFLSASSPLPASAKGQQPADVTGTALPRVGPVRPTGQDWNHTPQKTDHPSALLRDPPEPGSPRISSLRPQGLSNPSTLSAQPQLSRSHSSGSVLPLGELEGRRSTRDRRSPAEPEGGPASEGAARPLPRFNSVPLTDTGHERQSEGSFSPQLQESVFHLLVPSVILVLLAVGGLLFYRWRRRSHQEPQRADSPLEQPEGSPLTQDDRQVELPV
B4: BDNF: soluble growth factor (protein, UniProt P23560 19-247, looked up)
Neurotrophic factor BDNF …: APMKEANIRGQGGLAYPGVRTHGTLESVNGPKAGSRGLTSLADTFEHVIEELLDEDQKVRPNEENNKDADLYTSRVMLSSQVPLEPPLLFLLEEYKNYLDAANMSMRVRRHSDPARRGELSVCDSISEWVTAADKKTAVDMSGGTVTVLEKVPVSKGQLKQYFYETKCNPMGYTKEGCRGIDKRHWNSQCRTTQSYVRALTMDSKKRIGWRFIRIDTSCVCTLTIKRGR

Tested on: cortical stem cell clones
Test: Clonal growth of cortical stem cells with added soluble growth factors (without feeder cells)
Assay type: cell-based, mouse
Conditions: factor added at 10-50 ng/ml to serum-free medium with FGF2, no feeder cells
Protocol: Embryonic cerebral cortices and adult SVZ were dissected and dissociated as described (18-20). Single cells were plated into poly-l-lysine-coated 6-well plates (Costar) at clonal density (2000-4000 cells/well) and cultured in basal serum-free medium consisting of DMEM, B27, N2, NAC and 10 ng/ml FGF2 (19,20). To test the effects of soluble growth factors (PDGF, CNTF, TGFβ, IGF1, IL1, IL6, G-CSF, M-CSF, GM-CSF, LIF, BDNF, Steel factor, VEGF or EGF), each factor was added to serum-free medium with FGF2 at a range of 10-50 ng/ml, and clonal growth (cell number and generation of neurons and glia) was assessed (without co-cultured feeder cells). LIF and VEGF were also tested in combination, each added at 10 ng/ml into serum-free medium, with and without FGF2.

**Q.** B1 was tested. Which “duplication of the effect of endothelial co-culture on clonal growth” value (“duplication” for short) did it give?
**A.** none duplicated the result we see from endothelial co-cultures

**Q.** Which “duplication” value does the source give for B2 here?
**A.** none duplicated the result we see from endothelial co-cultures

**Q.** For B3, which “duplication” value is on record?
**A.** none duplicated the result we see from endothelial co-cultures

**Q.** B4 was tested. Which “duplication” value did it give?
**A.** none duplicated the result we see from endothelial co-cultures
